Experimental data: the supplement of paper PMC7125110
± gives the standard error. Variants at the floor of the assay were thinned out.

B1: glmS ribozyme (parent)
chain: AUAAAAGCGCCAGAACUACAGAAAUGUAGUUGACGAGGAGGAGGUUUAUCGAAUUUUCGGCGGAUGCCUCCAAA

Columns and labels:
Conditions in all cases: with glucosamine-6-phosphate
[1] = variants of: B1; test: self-cleavage kobs at 640 uM GlcN6P; higher = faster cleavage; RNA array
Summary of the method: (§1)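 Barcoded ribozyme variants on sequenced MiSeq chips were transcribed in situ by E. coli RNA polymerase and followed at 37 °C through a hybridised Cy3 probe. Glucosamine-6-phosphate at 40 μM to 10 mM in HEPES/KCl/Mg(OAc)2 buffer was flowed in, and tiles were imaged over ~14 h. Signals were normalised to baseline and to non-cleaving reference variants, and per-tile medians were fit to one- or two-exponential decays to give kobs. Weighted Michaelis–Menten fits across concentrations gave kcat and KM.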

[2] = variants of: B1; test: self-cleavage kobs at 2500 uM GlcN6P; higher = faster cleavage; RNA array
Summary of the method: as §1

[3] = variants of: B1; test: self-cleavage kobs at 10000 uM GlcN6P; higher = faster cleavage; RNA array
Summary of the method: as §1

Variant | self-cleavage kobs at 640 uM GlcN6P [1] [s⁻¹] | self-cleavage kobs at 2500 uM GlcN6P [2] [s⁻¹] | self-cleavage kobs at 10000 uM GlcN6P [3] [s⁻¹]
C11G U55G G59C | 0.00067 ± 0.00021 | – | –
C16U A36G A39C | < 1e-05 | – | –
C8U G9A G29U C58U | < 1e-05 | < 1e-05 | –
A39C U45G C70G | < 1e-05 | < 1e-05 | –
G7C C10U G43U | < 1e-05 | – | –
G43A U49G C50G U57C | < 1e-05 | – | –
C11U G44U C70G | < 1e-05 | – | –
A33C U47G A48C | < 1e-05 | < 1e-05 | < 1e-05
C50U G63U C68G | 0.000126 ± 5e-05 | 7.59e-05 ± 3.2e-05 | –
C34U U49A U55G C61U C68G | 0.000585 ± 0.00016 | – | –
G35A U65C U69C | < 1e-05 | – | –
G7A G43A U55A G60U C67U C70G | < 1e-05 | – | –
U31C G43A | < 1e-05 | < 1e-05 | –
A12C A14U C16G G35C G62U | < 1e-05 | – | –
G32A G41A C50U | < 1e-05 | < 1e-05 | –
U49A C50G | < 1e-05 | – | –
U31A G60U C71A | < 1e-05 | < 1e-05 | –
A14U C16G G35U A36U G38U U56C U57G G60U | < 1e-05 | < 1e-05 | –
C10A A12C G43A C67U C70G | < 1e-05 | < 1e-05 | –
A42U G44U C61G | < 1e-05 | < 1e-05 | –
U30C G38U U57C A64G | < 1e-05 | – | –
G13A U49A U69A | 0.00011 ± 3.1e-05 | – | –
A12G G13U U47G A53U G66A | < 1e-05 | – | –

Variant | self-cleavage kobs at 640 uM GlcN6P [1] [s⁻¹] | self-cleavage kobs at 2500 uM GlcN6P [2] [s⁻¹] | self-cleavage kobs at 10000 uM GlcN6P [3] [s⁻¹]
G35C U54G | < 1e-05 | < 1e-05 | –
C10A U30C G37U | < 1e-05 | – | –
G35C A36C G40A G62C A64G C70U | < 1e-05 | < 1e-05 | –
U31A G32C C61U | < 1e-05 | – | –
A33C G37A G41C U56C | < 1e-05 | – | –
A14U U46C C70U | 0.000206 ± 5e-05 | – | –
U30A G38U | < 1e-05 | < 1e-05 | –
C8G A36U C70U | < 1e-05 | – | –
A6U A12U G13U U47A C70U | < 1e-05 | – | –
C11A C50G U57G | 8.51e-05 ± 3e-05 | 7.4e-05 ± 2.5e-05 | –
G32U G35A U55G C68A | < 1e-05 | < 1e-05 | –
A12U G62U | < 1e-05 | – | < 1e-05
A12U G29U G37A U55A | 0.000291 ± 8.3e-05 | 0.000446 ± 9.5e-05 | –
A39U G44U U47C G51U | < 1e-05 | – | –
G32A U54C C67U | 0.000136 ± 3.3e-05 | 0.000349 ± 9.2e-05 | –
U30C U31A U45A | 0.00111 ± 0.00052 | 0.000661 ± 0.0003 | –
A12G G44U C70G | < 1e-05 | < 1e-05 | –
C10U G63C U65G C70A C71A | 0.000118 ± 4.2e-05 | – | < 1e-05
A33U G41A C58A U65G | < 1e-05 | < 1e-05 | –
G35U A48C C68A | < 1e-05 | – | –
A52C U54G | < 1e-05 | – | –
A14U A15U G35A A39C G40U | < 1e-05 | – | –
G13A C16A C68G | 7.67e-05 ± 3.7e-05 | – | –

Variant | self-cleavage kobs at 640 uM GlcN6P [1] [s⁻¹] | self-cleavage kobs at 2500 uM GlcN6P [2] [s⁻¹] | self-cleavage kobs at 10000 uM GlcN6P [3] [s⁻¹]
U30A G51C | < 1e-05 | – | < 1e-05
G26U A42U | 6.28e-05 ± 1.6e-05 | 0.000124 ± 2.5e-05 | –
A12G G37C U57A | < 1e-05 | < 1e-05 | –
C16U U46C A53U | 0.000328 ± 7.3e-05 | 0.00078 ± 0.00025 | –
A6U G51C U56A U69G C70A | 0.000269 ± 8e-05 | – | –
A6C U46C U47C G59A | < 1e-05 | – | –
G13A A39U U55C | 4.33e-05 ± 1.4e-05 | 0.000128 ± 2.9e-05 | –
C58G G62A G63C C71A | 5.92e-05 ± 2.4e-05 | – | –
C16G A33U A52U C61U C71U | < 1e-05 | – | –
G7U A33C U47A | < 1e-05 | < 1e-05 | –
C58U G59C C61U C71A | < 1e-05 | – | –
G7C U30G A64G | < 1e-05 | – | –
A36U U45A G63U | < 1e-05 | < 1e-05 | –
C11A G38U U47A | < 1e-05 | – | –
U54A C67U C68A | 6.98e-05 ± 2.2e-05 | – | –
A33U C50G G51A | < 1e-05 | – | –
U57G G59U | < 1e-05 | < 1e-05 | < 1e-05
C11G C58G C70U | 8.61e-05 ± 2.4e-05 | – | –
A12C G32C G62A G63U | < 1e-05 | < 1e-05 | –
U31C G37A G44U A48U C50A U65G | < 1e-05 | – | –
U47C U55C | 0.00134 ± 0.00031 | 0.0023 ± 0.00064 | –
A12C A33U A52G U54G | < 1e-05 | – | –
U57G C67A U69G | 4.87e-05 ± 2.3e-05 | – | –

Variant | self-cleavage kobs at 640 uM GlcN6P [1] [s⁻¹] | self-cleavage kobs at 2500 uM GlcN6P [2] [s⁻¹] | self-cleavage kobs at 10000 uM GlcN6P [3] [s⁻¹]
A12G C50G C71G | 0.000415 ± 0.00014 | 0.000636 ± 0.00027 | –
A12C U47C U65C | < 1e-05 | – | –
C8A G37U A52G C70G | 0.000115 ± 5.1e-05 | – | –
C16G G37A U45A | 8.21e-05 ± 2.1e-05 | – | –
A15C A36C G41U | < 1e-05 | – | –
G7U A14G G60C C70A | < 1e-05 | – | –
A39U G41U A42U | 5.35e-05 ± 1.4e-05 | 0.000135 ± 2.2e-05 | –
C11A U30G G32U G44A G66A | < 1e-05 | < 1e-05 | –
G13U A14G G37A U45A | 9.84e-05 ± 2.1e-05 | 0.000193 ± 3.6e-05 | –
A15G G35A G44U C50G G59C G60C | < 1e-05 | – | –
A6G A14C C16G G40C | < 1e-05 | < 1e-05 | –
C34A U46G G62C | < 1e-05 | – | –
A12G G43C G51U G63A U65C C68A | < 1e-05 | < 1e-05 | –
A12C G29A G37A | 0.000302 ± 8.2e-05 | 0.000142 ± 5.2e-05 | –
U45G U55C C68U | < 1e-05 | – | –
G13C G40C A42C | < 1e-05 | < 1e-05 | –
A14G A15C G29A U47C C67A C71A | < 1e-05 | – | –
C8A G32C | < 1e-05 | < 1e-05 | < 1e-05
G21U U30A | 0.00112 ± 0.00029 | 0.000247 ± 0.00012 | 0.00354 ± 0.00075
G35A C50U C67G C70U | < 1e-05 | – | –
G9U A15U A42G G63C U69G | < 1e-05 | < 1e-05 | –
G7A U56G U69A | 0.00091 ± 0.00042 | – | –
G9U U54G C68U | < 1e-05 | – | –

Variant | self-cleavage kobs at 640 uM GlcN6P [1] [s⁻¹] | self-cleavage kobs at 2500 uM GlcN6P [2] [s⁻¹] | self-cleavage kobs at 10000 uM GlcN6P [3] [s⁻¹]
C11U G38C G51U U65A | < 1e-05 | – | –
A14U A64U U65A C67G C71G | 7.6e-05 ± 2.4e-05 | 4.74e-05 ± 2.1e-05 | –
A12C A14C U31G | 0.00206 ± 0.00061 | 0.00423 ± 0.0015 | –
C58U G62A C68G | 6.69e-05 ± 2.4e-05 | – | –
A14C A42U A64U | < 1e-05 | < 1e-05 | –
C8A A12C A33U A64G | < 1e-05 | < 1e-05 | –
U31C A52C C71A | < 1e-05 | – | –
A42U U47A U49A | < 1e-05 | < 1e-05 | –
C10G U30C C68G | 9.65e-05 ± 3.5e-05 | – | –
A6C C16A U31C | < 1e-05 | < 1e-05 | –
G35A U47A C50G U54G | 0.000171 ± 6.3e-05 | 0.000152 ± 4.7e-05 | –
C11A U30G U65C | < 1e-05 | < 1e-05 | –
A33U A42U G44C | < 1e-05 | – | –
G9U C34U U55C G60C G63A | < 1e-05 | – | –
G7C A15C G51U C61A G66U | < 1e-05 | – | –
A6U U54A | 9.76e-05 ± 2e-05 | 0.000837 ± 0.00027 | 0.000256 ± 4.4e-05
C10G C11G G32C G59C C67G | < 1e-05 | – | –
G13U U30G A48C | < 1e-05 | – | < 1e-05
G7C A14U U56A | < 1e-05 | < 1e-05 | –
G35A G37U C58A C70A | 0.000632 ± 0.00016 | – | –
A15G G43U A48U C50U | < 1e-05 | – | –
C11U U57G G63A | < 1e-05 | < 1e-05 | –
C11A U30G U54G | 4.96e-05 ± 1.4e-05 | 0.000114 ± 2.1e-05 | –

Variant | self-cleavage kobs at 640 uM GlcN6P [1] [s⁻¹] | self-cleavage kobs at 2500 uM GlcN6P [2] [s⁻¹] | self-cleavage kobs at 10000 uM GlcN6P [3] [s⁻¹]
G29C A48G G60A | < 1e-05 | – | –
A14U C34U G37C G51A U55C | < 1e-05 | – | –
G51U A52G G59A | < 1e-05 | < 1e-05 | –
G37U A64U | < 1e-05 | < 1e-05 | –
A12U C50U | 4.86e-05 ± 1.1e-05 | 9.52e-05 ± 1.7e-05 | 0.00036 ± 4.5e-05
G29C G40C C58G | < 1e-05 | – | –
A14G G29A A39G A42G G43U G62C | < 1e-05 | < 1e-05 | –
G29C U55G C71A | 0.000503 ± 0.00015 | 5.43e-05 ± 1.3e-05 | –
A6U C8A A64U | < 1e-05 | < 1e-05 | –
C11A A33U A52G C68G | 0.000157 ± 6.4e-05 | – | –
A6C G35U G37U G38C | < 1e-05 | – | –
A42C G43U U56A G66U | < 1e-05 | – | –
G29C A42G G43U G51C G62C | < 1e-05 | – | –
U54A G66A C71U | 0.00501 ± 0.00099 | – | –
C34U U47C | < 1e-05 | < 1e-05 | < 1e-05
C16U G37A U54C | 0.000373 ± 8.1e-05 | 0.000599 ± 0.00013 | 0.00176 ± 0.00031
G40C U65G | 9.16e-05 ± 3.6e-05 | 0.00036 ± 0.00012 | 0.000854 ± 0.00025
G44A U46A G62A | < 1e-05 | – | –
C8A A48G A53U | < 1e-05 | < 1e-05 | –
G43A A48U C50A | < 1e-05 | < 1e-05 | –
